Where two headings read alike, the source gives them in different places. Where no end group is shown, it is not given here. Ahx = NCCCCCC(=O)O
Assays:
[1] = target: T1, His-tagged G3BP1 NTF2 (peptide arrays) (human, UniProt Q13283 1-139); assay: peptide or protein array
[2] = target: T1, His-tagged G3BP1 NTF2 (peptide arrays); assay: peptide or protein array; remark: listed apart in the source
[3] = target: G3BP1 NTF2-like domain (1-139) S38T (human, UniProt Q13283 1-139, S38T); assay: fluorescence polarisation
Sequence of G3BP1 NTF2-like domain (1-139) S38T (Q13283 1-139 S38T): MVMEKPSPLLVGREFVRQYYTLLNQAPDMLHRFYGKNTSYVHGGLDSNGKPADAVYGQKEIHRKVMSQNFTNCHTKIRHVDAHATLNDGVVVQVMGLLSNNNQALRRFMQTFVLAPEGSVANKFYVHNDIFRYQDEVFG

[4] = target: G3BP1 NTF2-like domain (1-139) S38A (human, UniProt Q13283 1-139, S38A); assay: fluorescence polarisation
Sequence of G3BP1 NTF2-like domain (1-139) S38A (Q13283 1-139 S38A): as the sequence (Q13283 1-139 S38T) above, with T38A counted along it

[5] = target: G3BP1 NTF2-like domain (1-139) S38G (human, UniProt Q13283 1-139, S38G); assay: fluorescence polarisation
Sequence of G3BP1 NTF2-like domain (1-139) S38G (Q13283 1-139 S38G): as the sequence (Q13283 1-139 S38T) above, with T38G counted along it

[6] = target: G3BP1 NTF2-like domain (1-139) F124W (human, UniProt Q13283 1-139, F124W); assay: fluorescence polarisation
Sequence of G3BP1 NTF2-like domain (1-139) F124W (Q13283 1-139 F124W): as the sequence (Q13283 1-139 S38T) above, with T38S, F124W counted along it

[7] = target: G3BP1 NTF2-like domain (1-139) F33W (human, UniProt Q13283 1-139, F33W); assay: fluorescence polarisation
Sequence of G3BP1 NTF2-like domain (1-139) F33W (Q13283 1-139 F33W): as the sequence (Q13283 1-139 S38T) above, with F33W, T38S counted along it

[8] = target: G3BP1 NTF2-like domain (1-139), WT (human, UniProt Q13283 1-139); assay: fluorescence polarisation
Sequence of G3BP1 NTF2-like domain (1-139), WT (Q13283 1-139): as the sequence (Q13283 1-139 S38T) above, with T38S counted along it

[9] = target: G3BP1 NTF2-like domain (1-139) F15W (human, UniProt Q13283 1-139, F15W); assay: fluorescence polarisation
Sequence of G3BP1 NTF2-like domain (1-139) F15W (Q13283 1-139 F15W): as the sequence (Q13283 1-139 S38T) above, with F15W, T38S counted along it

[10] = target: G3BP1 NTF2-like domain (1-139) TripleW (F15W/F33W/F124W) (human, UniProt Q13283 1-139, F15W | F33W | F124W); assay: fluorescence polarisation
Sequence of G3BP1 NTF2-like domain (1-139) TripleW (F15W/F33W/F124W) (Q13283 1-139 F15W/F33W/F124W): as the sequence (Q13283 1-139 S38T) above, with F15W, F33W, T38S, F124W counted along it

[11] = target: G3BP1 NTF2-like domain (1-139) F33/124W (human, UniProt Q13283 1-139, F33W | F124W); assay: fluorescence polarisation
Sequence of G3BP1 NTF2-like domain (1-139) F33/124W (Q13283 1-139 F33W/F124W): as the sequence (Q13283 1-139 S38T) above, with F33W, T38S, F124W counted along it

[12] = target: G3BP1 NTF2-like domain (1-139) F15/33W (human, UniProt Q13283 1-139, F15W | F33W); assay: fluorescence polarisation
Sequence of G3BP1 NTF2-like domain (1-139) F15/33W (Q13283 1-139 F15W/F33W): as the sequence (Q13283 1-139 S38T) above, with F15W, F33W, T38S counted along it

[13] = target: G3BP1 NTF2-like domain (1-139) F15/124W (human, UniProt Q13283 1-139, F15W | F124W); assay: fluorescence polarisation
Sequence of G3BP1 NTF2-like domain (1-139) F15/124W (Q13283 1-139 F15W/F124W): as the sequence (Q13283 1-139 S38T) above, with F15W, T38S, F124W counted along it

T1 sequence (Q13283 1-139): as the sequence (Q13283 1-139 S38T) above, with T38S counted along it

## QGPYNFIQDSMIDFENQTLD [Caprin1 peptide L378I (SPOT array)]
[1]
  binding result: binds

## QGPYNFIQDSMLDFENQTLD [native Caprin1 peptide QGPYNFIQDSMLDFENQTLD (SPOT array)]
[1]
  binding result: binds

## QGPYNFIQESMLDFENQTLD [Caprin1 peptide D375E (SPOT array)]
[1]
  binding result: binds

## QGPYEFIQDSMLDFENQTLD [Caprin1 peptide N371E (SPOT array)]
[1]
  binding result: binds

## QGPYKFIQDSMLDFENQTLD [Caprin1 peptide N371K (SPOT array)]
[1]
  binding result: binds

## QGPYNFLQDSMLDFENQTLD [Caprin1 peptide I373L (SPOT array)]
[1]
  binding result: binds

## QGPYFFIQDSMLDFENQTLD [Caprin1 peptide N371F (SPOT array)]
[1]
  binding result: binds

## HSPQYIFGDLSPDEFNQFFV [USP10 peptide F13L (SPOT array)]
[2]
  binding result: binds

## QGPFNFIQDSMLDFENQTLD [Caprin1 peptide Y370F (SPOT array)]
[1]
  binding result: binds

## HSPQYIFGDISPDEFNQFFV [USP10 peptide F13I (SPOT array)]
[2]
  binding result: binds

## HSPQYIFADFSPDEFNQFFV [USP10 peptide G11A (SPOT array)]
[2]
  binding result: binds

## QGPYSFIQDSMLDFENQTLD [Caprin1 peptide N371S (SPOT array)]
[1]
  binding result: binds

## QGPYRFIQDSMLDFENQTLD [Caprin1 peptide N371R (SPOT array)]
[1]
  binding result: binds

## QGPYYFIQDSMLDFENQTLD [Caprin1 peptide N371Y (SPOT array)]
[1]
  binding result: binds

## {fluorescein-Ahx}-YNFIQDSMLDFE [Caprin1-derived dodecamer reporter peptide F*-YNFIQDSMLDFE]
[3]
  Kd: 11.8 µM
[4]
  Kd: 7.3 µM
[5]
  Kd: 10.5 µM
[6]
  Kd: 1700 nM
[7]
  Kd: 79.3 µM
[8]
  Kd: 1700 nM
[9]
  Kd: 9.3 µM
[10]
  Kd: 240 µM
[11]
  Kd: 133 µM
[12]
  Kd: 256 µM
[13]
  Kd: 14.4 µM

## HSPQYIFGDVSPDEFNQFFV [USP10 peptide F13V (SPOT array)]
[2]
  binding result: binds

## QGPYLFIQDSMLDFENQTLD [Caprin1 peptide N371L (SPOT array)]
[1]
  binding result: binds

## QGPYNFIQDSYLDFENQTLD [Caprin1 peptide M377Y (SPOT array)]
[1]
  binding result: binds

## QGPYQFIQDSMLDFENQTLD [Caprin1 peptide N371Q (SPOT array)]
[1]
  binding result: binds

## QGPYWFIQDSMLDFENQTLD [Caprin1 peptide N371W (SPOT array)]
[1]
  binding result: binds

## QGPYHFIQDSMLDFENQTLD [Caprin1 peptide N371H (SPOT array)]
[1]
  binding result: binds

## HSPQYIFGDFSPDEFNQFFV [native USP10 peptide HSPQYIFGDFSPDEFNQFFV (SPOT array)]
[2]
  binding result: binds

## QGPYDFIQDSMLDFENQTLD [Caprin1 peptide N371D (SPOT array)]
[1]
  binding result: binds

## QGPYNFIQDSFLDFENQTLD [Caprin1 peptide M377F (SPOT array)]
[1]
  binding result: binds

## QGPYNFIQDCMLDFENQTLD [Caprin1 peptide S376C (SPOT array)]
[1]
  binding result: binds

## HSPQYIFGDWSPDEFNQFFV [USP10 peptide F13W (SPOT array)]
[2]
  binding result: binds

## QGPYNFFQDSMLDFENQTLD [Caprin1 peptide I373F (SPOT array)]
[1]
  binding result: binds

## HSPQYIFGDYSPDEFNQFFV [USP10 peptide F13Y (SPOT array)]
[2]
  binding result: binds

## QGPYIFIQDSMLDFENQTLD [Caprin1 peptide N371I (SPOT array)]
[1]
  binding result: binds

## QGPYVFIQDSMLDFENQTLD [Caprin1 peptide N371V (SPOT array)]
[1]
  binding result: binds

## QGPYCFIQDSMLDFENQTLD [Caprin1 peptide N371C (SPOT array)]
[1]
  binding result: binds

## QGPYTFIQDSMLDFENQTLD [Caprin1 peptide N371T (SPOT array)]
[1]
  binding result: binds

## QGPYMFIQDSMLDFENQTLD [Caprin1 peptide N371M (SPOT array)]
[1]
  binding result: binds

— article PMC9723946 (The Journal of Biological Chemistry, 2022)
